One assay has as its target HCV E2 envelope glycoprotein (hepatitis C virus) (UniProt P27958). The assay can be described thus: ELISA of E2 on AP33 alanine mutants. Background: ELISA stands for enzyme-linked immunosorbent assay.
HCV E2 envelope glycoprotein (hepatitis C virus), sequence (P27958 384-746 limits assumed): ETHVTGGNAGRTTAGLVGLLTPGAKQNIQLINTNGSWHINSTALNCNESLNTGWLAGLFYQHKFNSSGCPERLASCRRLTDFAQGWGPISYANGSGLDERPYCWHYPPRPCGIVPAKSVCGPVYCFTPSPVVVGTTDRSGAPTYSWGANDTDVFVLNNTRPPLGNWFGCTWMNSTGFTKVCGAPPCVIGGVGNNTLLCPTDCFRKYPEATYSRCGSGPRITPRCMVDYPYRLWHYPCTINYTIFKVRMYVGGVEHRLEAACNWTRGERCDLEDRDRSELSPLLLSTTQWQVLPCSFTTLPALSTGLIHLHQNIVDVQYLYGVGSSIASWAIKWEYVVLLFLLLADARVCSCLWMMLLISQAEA
Take AP33 mutant FL32A (antibody): the reduction of binding relative to WT AP33 was found to be 90%. With AP33 mutant IH95A (antibody), the reduction of binding relative to WT AP33 worked out at 90%. On to AP33 mutant NL91A (antibody), for which the reduction of binding relative to WT AP33 was found to be 90%. Still for that read-out and setting: as for AP33 mutant WL96A (antibody), the figure is 90%; as for AP33 mutant YH33A (antibody), 90%; as for AP33 mutant YH58A (antibody), 90%.

The target in another assay is AP33 antibody (wild type mouse monoclonal). Put plainly: peptide inhibition ELISA: antibody pre-incubated with peptide, then transferred to E2-coated plates (competitor: E2) [panel AP33].
AP33 antibody (wild type mouse monoclonal), sequence (VH, as listed by the source, chain 1 of 2): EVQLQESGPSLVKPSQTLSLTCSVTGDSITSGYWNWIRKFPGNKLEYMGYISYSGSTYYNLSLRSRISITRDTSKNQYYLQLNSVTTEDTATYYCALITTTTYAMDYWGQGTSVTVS
AP33 antibody (wild type mouse monoclonal), sequence (VL, as listed by the source, chain 2 of 2): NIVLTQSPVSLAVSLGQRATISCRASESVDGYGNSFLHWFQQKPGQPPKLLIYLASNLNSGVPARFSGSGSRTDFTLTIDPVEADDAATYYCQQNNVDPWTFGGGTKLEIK
“peptide corresponding to the WT AP33 epitope (aa residues 412-424 of E2) (from UniProt P27958 412-424)” yielded an IC50 (read off the curve) of 0.1 µg/mL.
